T1: hZwint-1 (human, UniProt O95229 1-277)
T1 sequence (looked up): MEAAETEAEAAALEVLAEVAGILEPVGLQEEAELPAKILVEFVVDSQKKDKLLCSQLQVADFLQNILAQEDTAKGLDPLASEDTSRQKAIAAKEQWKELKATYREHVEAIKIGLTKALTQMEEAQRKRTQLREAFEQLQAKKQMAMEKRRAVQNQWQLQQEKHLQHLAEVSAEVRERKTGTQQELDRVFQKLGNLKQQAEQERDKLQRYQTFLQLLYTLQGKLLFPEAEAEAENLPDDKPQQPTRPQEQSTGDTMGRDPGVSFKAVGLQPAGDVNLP


target: T1, hZwint-1; test: two-hybrid

Binder | β-galactosidase assay
hZW10 C6 (aa 1–356) (domain or fragment, human, UniProt O43264 1-356, looked up) MASFVTEVLAHSGRLEKEDLGTRISRLTRRVEEIKGEVCNMISKKYSEFLPSMQSAQGLITQVDKLSEDIDLLKSRIESEVRRDLHVSTGEFTDLKQQLERDSVVLSLLKQLQEFSTAIEEYNCALTEKKYVTGAQRLEEAQKCLKLLKSRKCFDLKILKSLSMELTIQKQNILYHLGEEWQKLIVWKFPPSKDTSSLESYLQTELHLYTEQSHKEEKTPMPPISSVLLAFSVLGELHSKLKSFGQMLLKYILRPLASCPSLHAVIESQPNIVIIRFESIMTNLEYPSPSEVFTKIRLVLEVLQKQLLDLPLDTDLENEKTSTVPLAEMLGDMIWEDLSECLIKNCLVYSIPTNSS | 275
hZW10 C7 (aa 1–318) (domain or fragment, human, UniProt O43264 1-318, looked up) MASFVTEVLAHSGRLEKEDLGTRISRLTRRVEEIKGEVCNMISKKYSEFLPSMQSAQGLITQVDKLSEDIDLLKSRIESEVRRDLHVSTGEFTDLKQQLERDSVVLSLLKQLQEFSTAIEEYNCALTEKKYVTGAQRLEEAQKCLKLLKSRKCFDLKILKSLSMELTIQKQNILYHLGEEWQKLIVWKFPPSKDTSSLESYLQTELHLYTEQSHKEEKTPMPPISSVLLAFSVLGELHSKLKSFGQMLLKYILRPLASCPSLHAVIESQPNIVIIRFESIMTNLEYPSPSEVFTKIRLVLEVLQKQLLDLPLDTDLEN | 132
hZW10 C8 (aa 1–224) (domain or fragment, human, UniProt O43264 1-224, looked up) MASFVTEVLAHSGRLEKEDLGTRISRLTRRVEEIKGEVCNMISKKYSEFLPSMQSAQGLITQVDKLSEDIDLLKSRIESEVRRDLHVSTGEFTDLKQQLERDSVVLSLLKQLQEFSTAIEEYNCALTEKKYVTGAQRLEEAQKCLKLLKSRKCFDLKILKSLSMELTIQKQNILYHLGEEWQKLIVWKFPPSKDTSSLESYLQTELHLYTEQSHKEEKTPMPPI | 233
hZW10 C9 (aa 1–139) (domain or fragment, human, UniProt O43264 1-139, looked up) MASFVTEVLAHSGRLEKEDLGTRISRLTRRVEEIKGEVCNMISKKYSEFLPSMQSAQGLITQVDKLSEDIDLLKSRIESEVRRDLHVSTGEFTDLKQQLERDSVVLSLLKQLQEFSTAIEEYNCALTEKKYVTGAQRLE | 445
hZW10 full length (aa 1–779) (natural protein, human, UniProt O43264 1-779, looked up) MASFVTEVLAHSGRLEKEDLGTRISRLTRRVEEIKGEVCNMISKKYSEFLPSMQSAQGLITQVDKLSEDIDLLKSRIESEVRRDLHVSTGEFTDLKQQLERDSVVLSLLKQLQEFSTAIEEYNCALTEKKYVTGAQRLEEAQKCLKLLKSRKCFDLKILKSLSMELTIQKQNILYHLGEEWQKLIVWKFPPSKDTSSLESYLQTELHLYTEQSHKEEKTPMPPISSVLLAFSVLGELHSKLKSFGQMLLKYILRPLASCPSLHAVIESQPNIVIIRFESIMTNLEYPSPSEVFTKIRLVLEVLQKQLLDLPLDTDLENEKTSTVPLAEMLGDMIWEDLSECLIKNCLVYSIPTNSSKLQQYEEIIQSTEEFENALKEMRFLKGDTTDLLKYARNINSHFANKKCQDVIVAARNLMTSEIHNTVKIIPDSKINVPELPTPDEDNKLEVQKVSNTQYHEVMNLEPENTLDQHSFSLPTCRISESVKKLMELAYQTLLEATTSSDQCAVQLFYSVRNIFHLFHDVVPTYHKENLQKLPQLAAIHHNNCMYIAHHLLTLGHQFRLRLAPILCDGTATFVDLVPGFRRLGTECFLAQMRAQKGELLERLSSARNFSNMDDEENYSAASKAVRQVLHQLKRLGIVWQDVLPVNIYCKAMGTLLNTAISEVIGKITALEDISTEDGDRLYSLCKTVMDEGPQVFAPLSEESKNKKYQEEVPVYVPKWMPFKELMMMLQASLQEIGDRWADGKGPLAAAFSSSEVKALIRALFQNTERRAAALAKIK | 187
hZW10 N1 (aa 52–779) (domain or fragment, human, UniProt O43264 52-779, looked up) SMQSAQGLITQVDKLSEDIDLLKSRIESEVRRDLHVSTGEFTDLKQQLERDSVVLSLLKQLQEFSTAIEEYNCALTEKKYVTGAQRLEEAQKCLKLLKSRKCFDLKILKSLSMELTIQKQNILYHLGEEWQKLIVWKFPPSKDTSSLESYLQTELHLYTEQSHKEEKTPMPPISSVLLAFSVLGELHSKLKSFGQMLLKYILRPLASCPSLHAVIESQPNIVIIRFESIMTNLEYPSPSEVFTKIRLVLEVLQKQLLDLPLDTDLENEKTSTVPLAEMLGDMIWEDLSECLIKNCLVYSIPTNSSKLQQYEEIIQSTEEFENALKEMRFLKGDTTDLLKYARNINSHFANKKCQDVIVAARNLMTSEIHNTVKIIPDSKINVPELPTPDEDNKLEVQKVSNTQYHEVMNLEPENTLDQHSFSLPTCRISESVKKLMELAYQTLLEATTSSDQCAVQLFYSVRNIFHLFHDVVPTYHKENLQKLPQLAAIHHNNCMYIAHHLLTLGHQFRLRLAPILCDGTATFVDLVPGFRRLGTECFLAQMRAQKGELLERLSSARNFSNMDDEENYSAASKAVRQVLHQLKRLGIVWQDVLPVNIYCKAMGTLLNTAISEVIGKITALEDISTEDGDRLYSLCKTVMDEGPQVFAPLSEESKNKKYQEEVPVYVPKWMPFKELMMMLQASLQEIGDRWADGKGPLAAAFSSSEVKALIRALFQNTERRAAALAKIK | 2.14
hZW10 C1 (aa 1–772) (domain or fragment, human, UniProt O43264 1-772, looked up) MASFVTEVLAHSGRLEKEDLGTRISRLTRRVEEIKGEVCNMISKKYSEFLPSMQSAQGLITQVDKLSEDIDLLKSRIESEVRRDLHVSTGEFTDLKQQLERDSVVLSLLKQLQEFSTAIEEYNCALTEKKYVTGAQRLEEAQKCLKLLKSRKCFDLKILKSLSMELTIQKQNILYHLGEEWQKLIVWKFPPSKDTSSLESYLQTELHLYTEQSHKEEKTPMPPISSVLLAFSVLGELHSKLKSFGQMLLKYILRPLASCPSLHAVIESQPNIVIIRFESIMTNLEYPSPSEVFTKIRLVLEVLQKQLLDLPLDTDLENEKTSTVPLAEMLGDMIWEDLSECLIKNCLVYSIPTNSSKLQQYEEIIQSTEEFENALKEMRFLKGDTTDLLKYARNINSHFANKKCQDVIVAARNLMTSEIHNTVKIIPDSKINVPELPTPDEDNKLEVQKVSNTQYHEVMNLEPENTLDQHSFSLPTCRISESVKKLMELAYQTLLEATTSSDQCAVQLFYSVRNIFHLFHDVVPTYHKENLQKLPQLAAIHHNNCMYIAHHLLTLGHQFRLRLAPILCDGTATFVDLVPGFRRLGTECFLAQMRAQKGELLERLSSARNFSNMDDEENYSAASKAVRQVLHQLKRLGIVWQDVLPVNIYCKAMGTLLNTAISEVIGKITALEDISTEDGDRLYSLCKTVMDEGPQVFAPLSEESKNKKYQEEVPVYVPKWMPFKELMMMLQASLQEIGDRWADGKGPLAAAFSSSEVKALIRALFQNTERRA | 3.4
hZW10 C2 (aa 1–698) (domain or fragment, human, UniProt O43264 1-698, looked up) MASFVTEVLAHSGRLEKEDLGTRISRLTRRVEEIKGEVCNMISKKYSEFLPSMQSAQGLITQVDKLSEDIDLLKSRIESEVRRDLHVSTGEFTDLKQQLERDSVVLSLLKQLQEFSTAIEEYNCALTEKKYVTGAQRLEEAQKCLKLLKSRKCFDLKILKSLSMELTIQKQNILYHLGEEWQKLIVWKFPPSKDTSSLESYLQTELHLYTEQSHKEEKTPMPPISSVLLAFSVLGELHSKLKSFGQMLLKYILRPLASCPSLHAVIESQPNIVIIRFESIMTNLEYPSPSEVFTKIRLVLEVLQKQLLDLPLDTDLENEKTSTVPLAEMLGDMIWEDLSECLIKNCLVYSIPTNSSKLQQYEEIIQSTEEFENALKEMRFLKGDTTDLLKYARNINSHFANKKCQDVIVAARNLMTSEIHNTVKIIPDSKINVPELPTPDEDNKLEVQKVSNTQYHEVMNLEPENTLDQHSFSLPTCRISESVKKLMELAYQTLLEATTSSDQCAVQLFYSVRNIFHLFHDVVPTYHKENLQKLPQLAAIHHNNCMYIAHHLLTLGHQFRLRLAPILCDGTATFVDLVPGFRRLGTECFLAQMRAQKGELLERLSSARNFSNMDDEENYSAASKAVRQVLHQLKRLGIVWQDVLPVNIYCKAMGTLLNTAISEVIGKITALEDISTEDGDRLYSLCKTVMDEGPQVFA | 2.6
hZW10 C3 (aa 1–560) (domain or fragment, human, UniProt O43264 1-560, looked up) MASFVTEVLAHSGRLEKEDLGTRISRLTRRVEEIKGEVCNMISKKYSEFLPSMQSAQGLITQVDKLSEDIDLLKSRIESEVRRDLHVSTGEFTDLKQQLERDSVVLSLLKQLQEFSTAIEEYNCALTEKKYVTGAQRLEEAQKCLKLLKSRKCFDLKILKSLSMELTIQKQNILYHLGEEWQKLIVWKFPPSKDTSSLESYLQTELHLYTEQSHKEEKTPMPPISSVLLAFSVLGELHSKLKSFGQMLLKYILRPLASCPSLHAVIESQPNIVIIRFESIMTNLEYPSPSEVFTKIRLVLEVLQKQLLDLPLDTDLENEKTSTVPLAEMLGDMIWEDLSECLIKNCLVYSIPTNSSKLQQYEEIIQSTEEFENALKEMRFLKGDTTDLLKYARNINSHFANKKCQDVIVAARNLMTSEIHNTVKIIPDSKINVPELPTPDEDNKLEVQKVSNTQYHEVMNLEPENTLDQHSFSLPTCRISESVKKLMELAYQTLLEATTSSDQCAVQLFYSVRNIFHLFHDVVPTYHKENLQKLPQLAAIHHNNCMYIAHHLLTLGHQFR | 2.5
hZW10 C4 (aa 1–496) (domain or fragment, human, UniProt O43264 1-496, looked up) MASFVTEVLAHSGRLEKEDLGTRISRLTRRVEEIKGEVCNMISKKYSEFLPSMQSAQGLITQVDKLSEDIDLLKSRIESEVRRDLHVSTGEFTDLKQQLERDSVVLSLLKQLQEFSTAIEEYNCALTEKKYVTGAQRLEEAQKCLKLLKSRKCFDLKILKSLSMELTIQKQNILYHLGEEWQKLIVWKFPPSKDTSSLESYLQTELHLYTEQSHKEEKTPMPPISSVLLAFSVLGELHSKLKSFGQMLLKYILRPLASCPSLHAVIESQPNIVIIRFESIMTNLEYPSPSEVFTKIRLVLEVLQKQLLDLPLDTDLENEKTSTVPLAEMLGDMIWEDLSECLIKNCLVYSIPTNSSKLQQYEEIIQSTEEFENALKEMRFLKGDTTDLLKYARNINSHFANKKCQDVIVAARNLMTSEIHNTVKIIPDSKINVPELPTPDEDNKLEVQKVSNTQYHEVMNLEPENTLDQHSFSLPTCRISESVKKLMELAYQTLLE | 1
hZW10 C5 (aa 1–410) (domain or fragment, human, UniProt O43264 1-410, looked up) MASFVTEVLAHSGRLEKEDLGTRISRLTRRVEEIKGEVCNMISKKYSEFLPSMQSAQGLITQVDKLSEDIDLLKSRIESEVRRDLHVSTGEFTDLKQQLERDSVVLSLLKQLQEFSTAIEEYNCALTEKKYVTGAQRLEEAQKCLKLLKSRKCFDLKILKSLSMELTIQKQNILYHLGEEWQKLIVWKFPPSKDTSSLESYLQTELHLYTEQSHKEEKTPMPPISSVLLAFSVLGELHSKLKSFGQMLLKYILRPLASCPSLHAVIESQPNIVIIRFESIMTNLEYPSPSEVFTKIRLVLEVLQKQLLDLPLDTDLENEKTSTVPLAEMLGDMIWEDLSECLIKNCLVYSIPTNSSKLQQYEEIIQSTEEFENALKEMRFLKGDTTDLLKYARNINSHFANKKCQDVIVA | 26.6

— publication PMC2234252 (The Journal of Cell Biology, 2008)
